Holding throughout (format): biochemical
Data set [1] can be described thus: Assays to determine activities and stereospecificities of Saro_2872 and Saro_2873. The procedure:
Cell-free protein synthesis. Cell-free protein synthesis was run essentially as previously described (Makino et al. 2014). The Saro_2872 polypeptide contained a His6-tag and a Tev protease recognition site on its N-terminus that were not removed. The Saro_2873 polypeptide was synthesized in its native form. Synthesized polypeptides were not purified from the synthesis reaction mixture; assays for enzymatic activity were performed by adding aliquots directly from the synthesis reaction. Concentrations of the Saro_2872 and Saro_2873 polypeptides in the reaction mixtures were approximated using the intensities of the bands in an SDS-PAGE gel.
0.1 mM racemic (β(S) and β(R)) MPHPV was combined with 5.8 mM glutathione (GSH) in reaction buffer (RB; 25 mM Tris-HCl (pH 8.0) and 25 mM NaCl). […] These 212 μL reactions were incubated at 30° C. for several hours, then analyzed via HPLC.
HPLC analysis. Analysis and quantification of aromatic compounds were performed using an Ultra AQ C18 5 μm column (Restek) attached to a System Gold HPLC (Beckman Coulter) with running buffers and methods described in Example 1. The eluent was analyzed for light absorbance between 191 and 600 nm, and absorbances at 280 nm were used for quantification of aromatic metabolites by comparing peak areas to those of standards.

A short description of data set [2]: Kinetics analysis of GS-HPV cleavage (conversion into HPV), β(R)-stereoisomer. On the procedure: (§1) Kinetics analysis of GS-HPV cleavage. The Reaction Buffer (RB) consisted of 25 mM Tris-HCl (pH 8.5) and 25 mM NaCl. The β(R)- and β(S)-stereoisomers of GS-HPV were separately generated by incubating racemic MPHPV (0.46 mM) in RB with 5 mM reduced glutathione (GSH) and either 38 μg/mL LigF1 or 36 μg/mL LigE, respectively, for several h. This sample, containing a single GS-HPV stereoisomer, guaiacol, and the unreacted MPHPV stereoisomer, was diluted with RB to achieve the desired concentration of GS-HPV for the time course reaction (0.005, 0.011, 0.022, 0.096, or 0.193 mM). An additional 5 mM GSH (dissolved in RB) was added prior to initiation of each time course. […] Assays were performed at 25° C., and at specified time points, 300 μL of the reaction was removed and combined with 100 μL 1 M HCl (Acros Organics; Geel, Belgium) to stop the reaction before HPLC analysis to quantify HPV formed.
(§2) HPLC analysis. After extracellular aromatics were identified using LC-MS, routine analysis and quantification of aromatics were performed using an Ultra AQ C18 5 μm column (Restek, Bellefonte, Pa.) attached to a System Gold HPLC (Beckman Coulter, Brea, Calif.) with running buffers and chromatography conditions described in FIG. 14. […]

Data set [3] is described as follows: Kinetics analysis of GS-HPV cleavage (conversion into HPV), β(S)-stereoisomer. On the procedure: as §1, §2

Data on three molecules can be found in patent US11447754B2, “In vitro methods of chemical conversion using non-stereospecific glutathione lyases” (WISCONSIN ALUMNI RESEARCH FOUNDATION, priority 2017, dated 2022).

B1: BaeA: heterodimeric β-aryl etherase of Saro_2872 (SEQ ID NO:40) and Saro_2873 (SEQ ID NO:42) from Novosphingobium aromaticivorans (protein)
chain 1: MSALLYHGEPNGASLTVLAALAETGLDIECRRIDLLAGERHSLPGIVDPVALDLSIEGEGPVLVIDGEAMTESVFLAQYLDEAAGGVGLQPTDAYARWEMMMWCRQITERLSPAAALLGNLATSQSAIAAIPAEDFAILAARIVSDDLRERWQALNDDAVNAAQVADSETKVAAAVDRCEKQLGDGREWLMGTFSIADLVTYSWLAGMEPLRPAAFADAPLVKAWLARTAARPCVQAALARATISEPLRAWAPGPEINRWG
chain 2: MDEVSLYHWEPNANSGKPMLALMEKGVPFSSHYIDMLQFDQHKPEYLAINPQGTIPAMTHNGQVLTESTAIMEYVNDRFDGPDLMPADAQDRWRVRWWMKFMDQWLGPSFSMIGWSVFVGPMVRQRDPAELAAAIDRIPLPERRTAWRKAINGDFSESEMAESRRRVGLGIAKLEEELGKRPYVGSNQYSLADINIFNSTYSLPISQPDLAGKDRTPNIMRWLKRVYTREAVKKTWAMGKTDLAHRYGLIMAEIEG
modifications: Novosphingobium aromaticivorans
In the case of B1, the “conversion of racemic MPHPV into GS-HPV and guaiacol” value in data set [1] (both polypeptides combined, ~24 nM each, 30° C.) is on record as “half of the MPHPV was converted”. Moreover, the “reaction with β(S)-MPHPV” value in data set [1] (recombinantly generated Saro_2872-Saro_2873 complex) was “did not react”.

B2: NaGSTNu: Nu-class glutathione S-transferase from Novosphingobium aromaticivorans DSM 12444 (Saro_2595), SEQ ID NO:18; non-stereospecific glutathione lyase (protein)
chain: MSSEYVPPKVWKWDKANGGAFASVNRPVAGPTSERELPVGKHPFQVYSLGTPNGQKATIMLEELLQLGFSEAEYDAWLIKIFEGDQFTSGFVDINPNSKIPAMVDRSGPEPFRVFESGAILMHLAEKFGVFLPTSGPARAECLSWLFWQVGSAPFIGGGFGHFYNYAPIKIEYAIDRYAMETKRLFDVANRRLAESRYLAGDEYTIADLATYTWFGNIYRGEAYGEAATFLSMHEYEHVGRWVGEIDARPGVLRGRLVNSSKGLAERHDASDFDALPPESLQAIVKGF
modifications: Novosphingobium aromaticivorans
notes: non-stereospecific glutathione lyase
With B2, the “KM with β(R)-GS-HPV, fold higher than with β(S)-GS-HPV” value in data set [2] is on record as around 5 fold. In data set [3], the “kcat/KM with the β(S)-isomer, fold higher than with the β(R)-isomer” value is reported as around 4 fold.

B3: SYK6GSTNu: Nu-class GST from Sphingobium sp. SYK-6 encoded by SLG_04120, SEQ ID NO:22 (protein)
chain: MADSDPSMNQPTGYVPPKVWTWDKENGGQFSNINAPTAGARQDVTLPVGEHPIQLYSLGTPNGQKVTIMLEELLAAGFDAEYDAWLIKIYTGEQFGSDFVAINPNSKIPAMMDHGLDPPLRLFESGSMLVYLAEKFGAFLPTEIRKRTETFNWLMWQMGSAPFVGGGFGHFYAYAPFKIEYAIDRYAMETKRQLDVLDKNLADREFMIGDEITIADFAIFPWYGSIMRGGYNAQEFLSTHEYRNVDRWVTQLSERTGVKRGLLVNSAGRPGGGIAERHSAADLDASIKAAEQEAAKTEA
modifications: Sphingobium sp. SYK-6
As to B3, in data set [3], the “kcat/KM with the β(S)-isomer, fold higher than with the β(R)-isomer” value was around 10 fold.
